Key:
[1] = target: T1, chimeric Protein 3 (ICAM-R domains 1-3 / ICAM-1) (human, UniProt P05362 317-532); assay: FACS, 5 µg/ml
T1 construct: range 317-532; on COS cells; also called Protein number 3; RD1-3.1D4-5

human ICAM-1 = target: T2, human ICAM-1 (human, UniProt P05362 28-532); assay: FACS, 5 µg/ml
T2 construct: whole, on cells; on transfected L or COS cells

human ICAM-R [2] = target: T3, human ICAM-R (human, UniProt P32942 30-547); assay: FACS, 5 µg/ml
T3 construct: On transfected L, CV-1 or COS cells, or native on human leukocytes and cell lines; also called ICAM-3; CDw50
T3 chain: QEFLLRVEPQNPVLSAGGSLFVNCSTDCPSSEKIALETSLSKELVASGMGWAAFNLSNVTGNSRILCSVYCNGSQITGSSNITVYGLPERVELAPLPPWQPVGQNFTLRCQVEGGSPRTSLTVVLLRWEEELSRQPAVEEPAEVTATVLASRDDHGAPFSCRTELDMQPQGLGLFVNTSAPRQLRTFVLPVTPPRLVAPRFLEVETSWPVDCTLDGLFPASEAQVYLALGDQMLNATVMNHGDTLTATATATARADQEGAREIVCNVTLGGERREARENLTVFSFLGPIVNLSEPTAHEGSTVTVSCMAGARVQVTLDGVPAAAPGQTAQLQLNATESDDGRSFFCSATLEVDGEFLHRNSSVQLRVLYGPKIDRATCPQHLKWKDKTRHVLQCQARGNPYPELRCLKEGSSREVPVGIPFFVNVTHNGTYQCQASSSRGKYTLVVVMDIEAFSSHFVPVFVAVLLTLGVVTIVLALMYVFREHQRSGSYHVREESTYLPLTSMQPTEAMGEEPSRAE

soluble human ICAM-R = target: T4, soluble human ICAM-R (human, UniProt P32942 30-485); assay: ELISA on coated shICAM-R; Low = 50% maximal binding at >1 µg/ml, High = at <1 µg/ml
T4 construct: baculovirus/Sf-9 product; also called shICAM-R; ICAM-Rt1
T4 chain: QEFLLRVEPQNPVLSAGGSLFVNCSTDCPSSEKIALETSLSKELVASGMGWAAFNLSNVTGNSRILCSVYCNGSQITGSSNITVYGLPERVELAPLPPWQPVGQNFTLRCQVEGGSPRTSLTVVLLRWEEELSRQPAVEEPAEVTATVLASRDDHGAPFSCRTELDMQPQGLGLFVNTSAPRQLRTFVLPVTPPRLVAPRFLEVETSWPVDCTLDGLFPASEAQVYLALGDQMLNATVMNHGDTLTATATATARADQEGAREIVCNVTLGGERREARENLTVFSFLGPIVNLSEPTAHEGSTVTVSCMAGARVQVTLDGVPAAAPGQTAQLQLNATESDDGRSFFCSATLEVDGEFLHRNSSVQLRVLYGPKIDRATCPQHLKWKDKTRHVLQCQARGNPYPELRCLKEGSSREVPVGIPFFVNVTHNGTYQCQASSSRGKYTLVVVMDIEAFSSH

human ICAM-R [3] = target: T3, human ICAM-R; assay: cell-based or functional assay

T2 sequence (P05362 28-532): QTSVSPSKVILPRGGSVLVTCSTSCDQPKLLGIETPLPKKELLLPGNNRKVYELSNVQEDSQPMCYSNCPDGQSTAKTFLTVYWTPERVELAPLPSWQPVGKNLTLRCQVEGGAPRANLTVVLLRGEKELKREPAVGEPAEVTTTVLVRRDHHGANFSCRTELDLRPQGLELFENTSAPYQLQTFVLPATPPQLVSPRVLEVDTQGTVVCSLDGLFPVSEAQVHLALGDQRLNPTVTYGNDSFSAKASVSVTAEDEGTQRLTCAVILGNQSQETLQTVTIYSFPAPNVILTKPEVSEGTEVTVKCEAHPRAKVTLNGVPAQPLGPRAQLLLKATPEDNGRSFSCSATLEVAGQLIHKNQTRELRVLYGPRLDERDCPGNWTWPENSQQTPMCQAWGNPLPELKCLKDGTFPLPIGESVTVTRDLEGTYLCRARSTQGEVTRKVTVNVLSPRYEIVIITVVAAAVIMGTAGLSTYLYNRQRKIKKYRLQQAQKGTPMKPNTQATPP

percent positive COS cell transfectants [1]: 52.7%
percent positive COS cell transfectants (human ICAM-1): 2.43%
percent positive COS cell transfectants (human ICAM-R [2]): 54.3%
monoclonal antibody concentration at 50% maximal binding (ELISA EC50) (soluble human ICAM-R): > 1 µg/mL
IC50 (µg/ml), inhibition of SEA-induced PBL proliferation by plate-bound antibody (human ICAM-R [3]): 63 µg/mL
B1: ICR-1.1 (antibody, mouse IgG2a, V domains shown)
VH: QVQLQQSGAELADPGASVKMSCKASGYTFTVYWMHWVKQRPGQGLEWIGYINPNTDYTEYNQRFQDKATLTADKSSSTAYMQLSSLTSEDSAVYYCARWGGNSYGLDYWGQGTSVTVSS
VL: QIVLTQSPALMSASPGEKVTMTCSASSSVSYIYWYQQKPRSSPKPWIYLTSNLASGVPARFSGSGSGASYSLTISIMEAEDAATYYCQQWKSIPLTFGAGTKLELK
notes: murine IgG2a, kappa; also called 26E3D; 26E3D-1

From US20010029293A1 (ICOS, published 2001)
